Measurements published in paper PMC4950319, “Kinetic and structural characterization of amyloid‐β peptide hydrolysis by human angiotensin‐1‐converting enzyme” (The Febs Journal, 2016).
Where no end group is shown, it is not given here. [ ]: non-standard residue; d: D form. The star is where a group is joined. Tyr(3-NO2) = N[C@@H](Cc1ccc(O)c([N+](=O)[O-])c1)C(=O)O; EDDnp = O=[N+]([O-])c1ccc(NCCN*)c([N+](=O)[O-])c1; 2Abz = Nc1ccccc1C(=O)O

Assays:
sACE (human ACE) = settings: cited from earlier work
From the text: Due to the C‐domain's poorer hydrolysis of Aβ we can infer that the C‐domain appears ...

ACE [1] = settings: full‐length Aβ(1–42); cited from earlier work
From the text: This type of cleavage has been observed in previous studies with other amyloid peptides 23, 24 and was also observed in the crystal structures of the N‐domain in complex with all the Aβ fragments tested. Based on the MS analysis of th ...

ACE [2] = settings: recombinant truncated domains only; cited from earlier work
From the text: Based on our results and the synergistic effect that the C‐domain exerts on the N‐domain, the C‐domain activity is likely to be important in vivo. […] This observation is supported by the architecture of the central cavity found in tACE (human testis ACE, C‐domain equivalent) crystal structure and the chloride‐dependent substrate interactions 54, 57. The latter study, ...

[3] = target: full-length domain knockout variant of human sACE with only the C-domain active (C-sACE) (human) (UniProt P12821)
Chain of full-length domain knockout variant of human sACE with only the C-domain active (C-sACE) (human) (P12821 other isoform, or with tags, fused parts or gaps, change not shown): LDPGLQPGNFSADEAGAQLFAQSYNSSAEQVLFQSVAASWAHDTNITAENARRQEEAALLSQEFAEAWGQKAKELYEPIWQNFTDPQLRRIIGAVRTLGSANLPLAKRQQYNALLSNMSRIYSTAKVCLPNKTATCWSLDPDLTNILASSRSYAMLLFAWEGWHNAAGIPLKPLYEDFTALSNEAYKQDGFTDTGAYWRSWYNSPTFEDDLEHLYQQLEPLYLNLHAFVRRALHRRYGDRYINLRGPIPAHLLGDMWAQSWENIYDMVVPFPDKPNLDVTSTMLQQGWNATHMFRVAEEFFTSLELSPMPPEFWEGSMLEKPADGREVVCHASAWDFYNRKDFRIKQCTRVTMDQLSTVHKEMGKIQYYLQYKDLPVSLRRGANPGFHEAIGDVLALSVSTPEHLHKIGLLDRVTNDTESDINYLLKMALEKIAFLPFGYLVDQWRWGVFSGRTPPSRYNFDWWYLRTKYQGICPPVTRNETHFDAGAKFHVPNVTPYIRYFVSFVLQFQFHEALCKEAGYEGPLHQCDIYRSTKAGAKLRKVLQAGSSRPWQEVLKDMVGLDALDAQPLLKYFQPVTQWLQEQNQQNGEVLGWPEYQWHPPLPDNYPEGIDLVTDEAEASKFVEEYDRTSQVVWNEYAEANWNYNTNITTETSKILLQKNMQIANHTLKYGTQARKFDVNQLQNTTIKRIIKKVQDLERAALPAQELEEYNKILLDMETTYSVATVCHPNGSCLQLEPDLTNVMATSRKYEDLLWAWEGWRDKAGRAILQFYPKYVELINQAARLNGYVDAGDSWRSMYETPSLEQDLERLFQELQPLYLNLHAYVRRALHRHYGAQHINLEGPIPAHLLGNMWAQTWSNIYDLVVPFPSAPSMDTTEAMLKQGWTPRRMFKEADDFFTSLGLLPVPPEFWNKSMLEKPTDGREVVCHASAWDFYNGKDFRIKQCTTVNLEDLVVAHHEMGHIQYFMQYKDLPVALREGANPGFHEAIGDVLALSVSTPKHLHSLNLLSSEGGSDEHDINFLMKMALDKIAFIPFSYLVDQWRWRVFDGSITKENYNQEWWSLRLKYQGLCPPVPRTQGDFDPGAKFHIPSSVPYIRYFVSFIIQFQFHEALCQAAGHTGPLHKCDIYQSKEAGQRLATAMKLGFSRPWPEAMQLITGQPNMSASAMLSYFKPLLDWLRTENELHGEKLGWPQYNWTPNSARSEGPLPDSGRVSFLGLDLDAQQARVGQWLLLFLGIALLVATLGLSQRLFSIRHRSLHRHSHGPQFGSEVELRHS

[4] = target: human wild-type somatic ACE (sACE) (human) (UniProt P12821)
Chain of human wild-type somatic ACE (sACE) (human) (P12821 30-1306): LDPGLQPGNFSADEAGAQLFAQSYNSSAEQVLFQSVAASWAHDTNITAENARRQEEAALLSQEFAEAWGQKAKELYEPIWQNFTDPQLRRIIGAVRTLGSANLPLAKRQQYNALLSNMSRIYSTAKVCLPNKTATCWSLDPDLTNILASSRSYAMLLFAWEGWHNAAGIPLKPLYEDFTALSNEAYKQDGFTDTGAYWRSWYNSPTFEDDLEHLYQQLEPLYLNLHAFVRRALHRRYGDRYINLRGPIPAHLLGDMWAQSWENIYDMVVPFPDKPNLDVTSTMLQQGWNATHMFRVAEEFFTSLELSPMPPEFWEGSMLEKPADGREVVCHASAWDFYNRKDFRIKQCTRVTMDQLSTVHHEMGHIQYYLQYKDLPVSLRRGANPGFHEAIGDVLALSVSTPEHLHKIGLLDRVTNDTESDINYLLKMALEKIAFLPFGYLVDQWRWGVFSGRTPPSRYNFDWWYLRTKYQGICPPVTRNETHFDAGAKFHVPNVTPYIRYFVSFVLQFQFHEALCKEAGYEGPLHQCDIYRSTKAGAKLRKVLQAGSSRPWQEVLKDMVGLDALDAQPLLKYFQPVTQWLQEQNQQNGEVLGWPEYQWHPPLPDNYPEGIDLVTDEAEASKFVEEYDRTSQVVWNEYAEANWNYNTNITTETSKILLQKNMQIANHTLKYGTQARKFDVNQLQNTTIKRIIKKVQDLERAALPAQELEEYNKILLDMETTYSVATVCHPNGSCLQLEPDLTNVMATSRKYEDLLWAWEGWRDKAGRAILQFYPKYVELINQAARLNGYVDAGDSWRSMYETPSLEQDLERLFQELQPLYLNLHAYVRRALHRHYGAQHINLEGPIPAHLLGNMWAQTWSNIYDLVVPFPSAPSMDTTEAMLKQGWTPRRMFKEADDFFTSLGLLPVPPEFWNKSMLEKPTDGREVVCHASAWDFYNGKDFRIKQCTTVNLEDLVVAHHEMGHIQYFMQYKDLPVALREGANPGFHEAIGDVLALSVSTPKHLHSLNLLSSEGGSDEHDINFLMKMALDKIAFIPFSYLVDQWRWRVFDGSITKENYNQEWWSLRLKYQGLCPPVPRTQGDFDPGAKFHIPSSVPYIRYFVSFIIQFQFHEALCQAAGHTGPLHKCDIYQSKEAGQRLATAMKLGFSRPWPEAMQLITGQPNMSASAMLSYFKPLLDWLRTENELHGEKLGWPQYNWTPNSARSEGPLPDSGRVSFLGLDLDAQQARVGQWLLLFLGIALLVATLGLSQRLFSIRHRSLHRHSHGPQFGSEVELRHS

[5] = target: soluble form of the N-domain of human sACE (Ndom) (human) (UniProt P12821)
Chain of soluble form of the N-domain of human sACE (Ndom) (human) (P12821 30-658): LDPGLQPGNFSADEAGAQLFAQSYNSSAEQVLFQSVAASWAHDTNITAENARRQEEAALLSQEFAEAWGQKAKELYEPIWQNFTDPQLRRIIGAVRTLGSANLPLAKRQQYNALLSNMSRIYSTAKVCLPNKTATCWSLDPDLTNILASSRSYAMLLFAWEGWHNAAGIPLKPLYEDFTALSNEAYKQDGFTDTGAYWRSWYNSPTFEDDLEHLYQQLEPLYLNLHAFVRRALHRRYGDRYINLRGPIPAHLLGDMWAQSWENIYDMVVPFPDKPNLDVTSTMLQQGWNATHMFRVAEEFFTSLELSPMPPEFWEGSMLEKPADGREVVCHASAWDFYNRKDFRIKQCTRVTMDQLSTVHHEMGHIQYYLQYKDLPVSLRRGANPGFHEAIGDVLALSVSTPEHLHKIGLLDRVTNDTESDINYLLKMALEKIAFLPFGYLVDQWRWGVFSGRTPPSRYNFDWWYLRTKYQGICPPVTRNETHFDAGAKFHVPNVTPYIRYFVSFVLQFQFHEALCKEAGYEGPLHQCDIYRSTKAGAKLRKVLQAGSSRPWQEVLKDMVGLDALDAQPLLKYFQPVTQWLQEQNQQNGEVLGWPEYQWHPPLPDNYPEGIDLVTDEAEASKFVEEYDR

[6] = target: full-length domain knockout variant of human sACE with only the N-domain active (N-sACE) (human) (UniProt P12821)
Chain of full-length domain knockout variant of human sACE with only the N-domain active (N-sACE) (human) (P12821 other isoform, or with tags, fused parts or gaps, change not shown): as the sequence (P12821 30-1306) above, with H959K, H963K counted along it

[7] = target: full-length domain knockout variant of human sACE with only the C-domain active (C-sACE) (human) (UniProt P12821); remark: listed apart in the source
[8] = target: full-length domain knockout variant of human sACE with only the N-domain active (N-sACE) (human) (UniProt P12821); remark: listed apart in the source
[9] = target: full-length domain knockout variant of human sACE with only the C-domain active (C-sACE) (human) (UniProt P12821); remark: listed apart in the source
[10] = target: full-length domain knockout variant of human sACE with only the N-domain active (N-sACE) (human) (UniProt P12821); remark: listed apart in the source

Q: With “angiotensin‐(1‐9) (DRVYIHPFH; Angiotensin 1-9; UniProt P01019 25-33, looked up, fragment) [physiological substrate]” as the molecule, how does the “degree of cooperativity between domains” value (sACE (human ACE); compared with many synthetic peptides) read?
A: considerably less than many synthetic peptides

Q: What about the interdomain cooperativity (sACE (human ACE); human ACE enzymes) of the same molecule?
A: showed a similar result for angiotensin I and angiotensin‐(1‐7) but not angiotensin‐(1‐9)

Q: For Aβ(1–42): full‐length Aβ(1–42), which cleavage sites (ACE [1]) is on record?
A: multiple cleavage sites

Q: Which “competition with hippuryl‐L‐histidyl‐ L‐leucine” value (ACE [2]) does the source give for Aβ(1–40): larger Aβ(1–40) substrate here?
A: did not out‐compete

Q: For Aβ(1–16) (H-…-OH) (peptide), which Km of hydrolysis of Aβ(1–16) (HPLC assay, 15 min, 37 °C, 50 mM Hepes pH 7.5, 100 mM NaCl, 10 μM ZnSO4) [3] is on record?
A: 42.4 μM

Q: What about the Km of hydrolysis of Aβ(1–16) (HPLC assay, 15 min, 37 °C, 50 mM Hepes pH 7.5, 100 mM NaCl, 10 μM ZnSO4) [4] of the same molecule?
A: 35.2 μM

Q: What about the Km of hydrolysis of Aβ(1–16) (HPLC assay, 15 min, 37 °C, 50 mM Hepes pH 7.5, 100 mM NaCl, 10 μM ZnSO4) [5] of the same molecule?
A: 21.4 μM

Q: What about the Km of hydrolysis of Aβ(1–16) (HPLC assay, 15 min, 37 °C, 50 mM Hepes pH 7.5, 100 mM NaCl, 10 μM ZnSO4) [6] of the same molecule?
A: 34.2 μM

Q: What does the source list for [2Abz]FRHDSG[Tyr(3-NO2)] [Aβ(4–10)Y (Abz-FRHDSG-(NT))]?
A: Km of hydrolysis of Aβ(4–10)Y (fluorescence assay, read at 5 min) [7]: 38.1 µM; Km of hydrolysis of Aβ(4–10)Y (fluorescence assay, read at 5 min) [8]: 8.56 µM

Q: Which results are given for [2Abz]FRHDSGQ-EDDnp [Aβ(4–10)Q (Abz-FRHDSG(Q)-EDDnp)]?
A: Km of hydrolysis of Aβ(4–10)Q (fluorescence assay, 45 min, 37 °C, 50 mM Hepes pH 7.5, 100 mM NaCl, 10 μM ZnSO4) [9]: 11.5 μM; Km of hydrolysis of Aβ(4–10)Q (fluorescence assay, 45 min, 37 °C, 50 mM Hepes pH 7.5, 100 mM NaCl, 10 μM ZnSO4) [10]: 42.4 μM
